Results on two molecules are retold here after doi:10.1101/2021.06.08.447469.

In the data set the target is T1, MbpAgo (Mucilaginibacter paludis, UniProt H1YCU5 1-795).
T1 sequence: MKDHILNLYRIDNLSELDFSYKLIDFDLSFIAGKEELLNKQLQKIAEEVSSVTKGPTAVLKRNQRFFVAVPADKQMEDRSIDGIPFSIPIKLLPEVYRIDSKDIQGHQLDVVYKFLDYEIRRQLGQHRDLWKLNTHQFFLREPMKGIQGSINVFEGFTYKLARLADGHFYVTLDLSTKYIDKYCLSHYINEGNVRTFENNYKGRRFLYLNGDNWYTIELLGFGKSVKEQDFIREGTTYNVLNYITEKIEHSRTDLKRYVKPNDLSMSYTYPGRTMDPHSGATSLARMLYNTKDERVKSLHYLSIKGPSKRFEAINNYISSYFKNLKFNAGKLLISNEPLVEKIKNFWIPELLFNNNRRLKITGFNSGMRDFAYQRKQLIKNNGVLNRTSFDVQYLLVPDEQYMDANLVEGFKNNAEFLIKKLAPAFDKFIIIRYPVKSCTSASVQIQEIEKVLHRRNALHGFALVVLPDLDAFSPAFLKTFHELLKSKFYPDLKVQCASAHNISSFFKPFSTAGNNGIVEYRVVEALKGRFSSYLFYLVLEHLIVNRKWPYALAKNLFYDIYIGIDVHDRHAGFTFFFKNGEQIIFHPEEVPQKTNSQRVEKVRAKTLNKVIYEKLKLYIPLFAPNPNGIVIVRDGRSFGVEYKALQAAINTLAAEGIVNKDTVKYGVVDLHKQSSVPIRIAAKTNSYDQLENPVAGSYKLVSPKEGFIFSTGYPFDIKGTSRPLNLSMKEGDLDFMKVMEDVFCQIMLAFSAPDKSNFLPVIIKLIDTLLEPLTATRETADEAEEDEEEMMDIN
Put plainly: EMSA. (In general: A gel shift assay detects complexes by their altered migration in electrophoresis.)

TGAGGTAGTAGGTTGTAT (ssDNA, 5' phosphate) [18 nt 5'P-gDNA (FAM T-gDNA)] registered a Kd of 254 ± 23.3 nM.

In the case of TGAGGTAGTAGGTTGTAT (ssDNA) [18 nt 5'OH-gDNA (FAM T-gDNA)], the Kd turned out to be 292 ± 25.2 nM.

The Kd is a measure of binding affinity in units of concentration. Read a high Kd as lower affinity.
